From US20260263609A1 (NEW YORK UNIVERSITY, published 2026)

How the values were obtained:
[1] = target: T1, NRAS (human, UniProt P01111 1-174, limits assumed); assay: BLI; biotinylated monobody on streptavidin tip, NRAS at 50, 25, 12.5 and 6.25 nM; global 1:1 fit; upper left panel, untitled on this sheet, NRAS(WT)·GDP by the layout of FIG. 2A
T1 construct: also called Neuroblastoma-RAS; NRAS (WT)
Description: (§1) In these experiments a biotinylated monobody was immobilized on streptavidin coated BLI tip, and then binding of RAS proteins was measured.
(§2) These monobodies were produced as purified proteins and their binding characteristics against purified RAS proteins were analyzed using biolayer interferometry (BLI) (FIGS. 2A-2C).

[2] = target: T1, NRAS; assay: BLI; biotinylated monobody on streptavidin tip, NRAS at 50, 25, 12.5 and 6.25 nM; global 1:1 fit; upper right panel, untitled on this sheet, NRAS(WT)·GTPγS by the layout of FIG. 2A
Description: as §1, §2

[3] = target: T2, NRAS (K135R) (human, UniProt P01111 1-174, limits assumed); assay: BLI; sensorgrams at 100 nM and 25 nM with fit; nucleotide state not marked
T2 construct: also called NRAS mutant with the H/KRAS-mimicking mutation K135R

[4] = target: T1, NRAS; assay: BLI; biotinylated monobody on streptavidin tip, NRAS at 50, 25, 12.5 and 6.25 nM; global 1:1 fit; upper left panel, untitled on this sheet, NRAS(WT)·GDP by the layout of FIG. 2A; remark: listed apart in the source
Description: as §1, §2

[5] = target: T1, NRAS; assay: BLI; biotinylated monobody on streptavidin tip, NRAS at 50, 25, 12.5 and 6.25 nM; global 1:1 fit; upper right panel, untitled on this sheet, NRAS(WT)·GTPγS by the layout of FIG. 2A; remark: listed apart in the source
Description: as §1, §2

| Binder | Kd [1] [nM] | Kd [2] [nM] | Kd [3] [nM] | Kd [4] [nM] | Kd [5] [nM] |
| --- | --- | --- | --- | --- | --- |
| Mb(NRAS_20) (designed binder) VSSVPTKLEVVAATPTSLLISWDAPAVTVDFYVITYGETGAYYPYAQEFKVPGSKSTATISGLSPGVDYTITVYAYQVIGAIWKYYSPISINYRT | 3.3 | 1.1 | 9.5 | – | – |
| Mb(NRAS_24) (designed binder) VSSVPTKLEVVAATPTSLLISWDAPAVTVDFYVITYGETGGYAWAYQEFKVPGSKSTATISGLSPGVDYTITVYAYQVIGAIWKYYSPISINYRT | – | – | 5.6 | 2.6 | 0.52 |
